# Measured values reported in doi:10.1101/2025.08.19.670962, “Structural basis for binding of RILPL1 to TMEM55B reveals a lysosomal platform for adaptor assembly through a conserved TBM motif” (bioRxiv, 2025).
# Key:
# [1] = target: T1, TMEM55B (residues 80-160) (Homo sapiens, UniProt Q86T03); experiment: Isothermal titration calorimetry of TBM peptides / OCRL PH domain with TMEM55B; type: binding; conditions: ITC; titration shown in the figure panel (Figure 1G / Figure 6B); value printed in the picture, ±% = fitting error
# T1 construct: injected into a cell containing TMEM55B (residues 80-160); hexa-Histidine (N); made in house; host or cells: E. coli BL21(DE3)
# T1 sequence (Q86T03 73-153): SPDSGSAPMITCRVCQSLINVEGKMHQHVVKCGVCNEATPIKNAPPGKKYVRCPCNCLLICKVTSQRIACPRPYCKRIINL
# Experimental: Calorimetry experiments were performed using an ITC200 (Particular Sciences) as described in dx.doi.org/10.17504/protocols.io.j8nlkr7x6v5r/v1. Experiments were performed 3 or more times for each interacting pair. The TBM peptides were dialyzed together with TMEM55B80-160 (20 mM) Tris-HCl, 150mM NaCl, 5mM and 1mM DTT, pH 7.5). Protein concentrations were calculated based on their absorbance at 280nm using a ND-1000 NanoDrop spectrophotometer (Thermo Scientific), peptide concentration was determined by adding buffer to a known amount of lyophilized peptide factoring in their purity. The proteins were centrifuged at 13,100 x g for 10 minutes prior to the determination of protein concentration and ITC analyses. […]. We used Origin 7.0 with the ITC plugin for data processing, and assumed a single binding mode for data fitting.
# WT TMEM55B region 80-166 = experiment: In vitro pulldown of untagged TMEM55B with His-tagged bait peptides; type: binding; conditions: 10 μM bait, 10 μM prey, Ni2+-agarose, 20 mM Tris pH 8.0, 300 mM NaCl, 20 mM imidazole, 15 minutes, SDS-PAGE, Coomassie, qualitative
# Source text: Figure 5: In vitro pulldowns of TMEM55B with TBM peptides. (A) Domain organization of TMEM55B interactors depicting the sequence context of the TBM. Regions that are α-helical have been drawn as cylinders; α/βfolds are shown as rectangles; and unstructured segments are zigzag lines. (B) Cartoon depiction of the in vitro pulldown strategy using His-tagged peptides. […] As a control, the R151E variant of TMEM55B was used, which abolishes the interactions with RILPL1 (bottom panel). […] Protein/peptide concentrations were 10μM (see Methods) and visualization was enabled by Coomassie Brilliant Blue G250.
# Given that the TBMs reside in flexible regions of the adaptor proteins (Figure 5A), peptides should be able to mimic their interactions with TMEM55B. Peptides corresponding to the potential TBMs were synthesized with an N-terminal hexahistidine tag to enable in vitro pulldowns of TMEM55B (80-166; Figure 5B). Slightly extended peptides beyond the minimal TBMs were generated to preclude any structural or conformational restrictions on the interaction with TMEM55B. The peptide TBM from RILPL1 was used as a positive control, and the mutant R151E™ of TMEM55B provided a negative control. Peptides run on conventional SDS-PAGE gels are generally not visible in this assay. […]
molecule,measurement,setting,value
"OCRL-PH domain: recombinant His-tagged PH domain, residues 1-129 of OCRL, ~16kDa (protein, UniProt Q01968 1-129, looked up, fragment, PH domain His tag, recombinant His-tagged PH domain, residues 1-129 of OCRL, ~16kDa) MEPPLPVGAQPLATVEGMEMKGPLREPCALTLAQRNGQYELIIQLHEKEQHVQDIIPINSHFRCVQEAEETLLIDIASNSGCKIRVQGDWIRERRFEIPDEEHCLKFLSAVLAAQKAQSQLLVPEQKDS",Kd,[1],900 nM
same,pulldown of untagged WT TMEM55B (80-166) by His-tagged bait,WT TMEM55B region 80-166,interacts robustly
same,pulldown of untagged WT TMEM55B (80-166) by His-tagged bait,WT TMEM55B region 80-166; listed as PH domain of OCRL1,successfully pulldown
